# Results from publication PMC10148854, “A link between STK signalling and capsular polysaccharide synthesis in Streptococcus suis” (Nature Communications, 2023).
# Columns and labels:
# [1] = target: CcpS, as crystallised (Streptococcus suis); experiment: crystal structure; sitting-drop vapour diffusion at 277 K; 0.1 M Tris-HCl pH 8.0, 15% ethanol; 1.6 Å; molecular replacement with IreB (PDB 5US5)
# [2] = target: rCpsB-His (Streptococcus suis); experiment: SPR
# CpsB (rCpsB) = target: T1, CpsB (rCpsB) (Streptococcus suis, UniProt Q9X4U8); experiment: colorimetric phosphatase assay, absorbance […] nm; type: biochemical; settings: 50 nM enzyme, 16 uM pNPP, 1 mM MnCl2, 20 mM Tris pH 8.0, 150 mM NaCl, 37 °C
# T1 construct: gene cps2D; rs02785 in pET-28a, His-tag, expressed in E. coli BL21(DE3), HisTrap purified; capsule locus tyrosine phosphatase (PHP type, Mn-dependent)
molecule,measurement,setting,value
"CcpS, as crystallised (natural protein)",stoichiometry N,[1],2
rCcpS-T4VT7V (natural protein),fold higher affinity than rCcpS-T4ET7E,[2],> 10 fold
"O=[N+]([O-])c1ccc(OP(=O)(O)O)cc1 [pNPP, p-nitrophenyl phosphate]",relative activity,CpsB (rCpsB),Colorimetric phosphatase assays of CpsB activity were performed using p-nitrophenyl phosphate (pNPP)
